# Experimental data from patent US20220267475A1.
# Key:
# [1] = target: CD47-expressing CHO-K1 cells (UniProt Q08722); test: flow cytometry
# [2] = target: TIGIT-expressing CHO-K1 cells (UniProt Q495A1); test: flow cytometry
# TIGIT-expressing CHO-K1 cells, sequence (Q495A1 22-244): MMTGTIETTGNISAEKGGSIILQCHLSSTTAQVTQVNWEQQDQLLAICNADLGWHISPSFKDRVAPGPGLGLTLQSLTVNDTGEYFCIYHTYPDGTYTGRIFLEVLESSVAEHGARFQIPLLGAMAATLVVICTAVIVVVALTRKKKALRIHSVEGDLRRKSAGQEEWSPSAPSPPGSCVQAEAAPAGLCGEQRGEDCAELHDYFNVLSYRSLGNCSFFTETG
# CD47-expressing CHO-K1 cells, sequence (Q08722 19-323): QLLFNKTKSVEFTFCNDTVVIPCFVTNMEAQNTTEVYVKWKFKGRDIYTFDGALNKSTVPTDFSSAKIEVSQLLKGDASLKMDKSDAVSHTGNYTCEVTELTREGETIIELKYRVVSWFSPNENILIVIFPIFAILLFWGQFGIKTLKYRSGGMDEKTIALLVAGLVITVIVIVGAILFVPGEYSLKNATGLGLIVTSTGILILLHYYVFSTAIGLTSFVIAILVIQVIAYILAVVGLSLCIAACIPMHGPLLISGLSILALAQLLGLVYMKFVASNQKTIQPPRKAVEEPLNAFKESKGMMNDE
substance,measurement,setting,value
Human IgG,EC50,[1],0.992 pM
same,EC50,[2],15 pM
